Results from article PMC5039624 (Scientific Reports, 2016).

B1: unnamed (parent)
chain 1: SECGKFMWKCKNSNDCCKDLVCSSRWKWCVLASPF
chain 2: RGLSDLGGRVRNIGDVMEHPLVELGVSYAALLSVIVVVVEYTMQLSGEYLVRLYLVDLILVIILWADYAYRAYKSGDPAGYVKKTLYEIPALVPAGLLALIEGHLAGLGLFRLVRLLRFLRILLIISRGSKFLSAIADAADK

Variants of: B1
Assay: pull-down
Parameters: reference not given here
Settings: with partner chain of the complex shown; His6-tagged VSDK micelles immobilized on nickel-NTA beads; read off a plot

**Q.** With chain 2 S46A as the variant, how does the screen value read?
**A.** 11%

**Q.** Which screen value does the source give for chain 2 Y41A here?
**A.** 8%

**Q.** chain 2 Y41A T42A was tested. Which screen value did it give?
**A.** 19%

**Q.** With chain 2 R115A as the variant, how does the screen value read?
**A.** 7%

**Q.** For chain 2 Y41A T42A Q44A, which screen value is on record?
**A.** 51%

**Q.** With chain 2 T42A as the variant, how does the screen value read?
**A.** 6%

**Q.** For chain 2 W65A, which screen value is on record?
**A.** -7%
